Assay [1] has as its system BXPC3 binding to fibronectin. Briefly: Adhesion to extracellular matrix proteins assay, BXPC3. It counts as cell-based, human. On the procedure:
Adhesion to extracellular matrix proteins assay—The assay was done using the CYTOMATRIX™ screening kit from CHEMICON® (Kit #ECM205, Temecula, Calif.). The kit contains 96-well plates with strips coated with fibronectin, vitronectin, laminin, collagen-I, or collagen-IV. Subconfluent cell cultures were used for these studies. Cells (1×10^6 cells/mol) were seeded onto coated substrate and incubated at 37° C. for 1 hour in a CO2 incubator in PBS containing Ca^2+/Mg^2+ (200 μL per well). Adherent cells were fixed and stained. The plate was washed to remove unadhered cells and stained with 100 μL per well of MTS (Cell Titer Aq 96, PROMEGA®, Madison, Wis.) for 5 minutes at room temperature. Excess stain was removed with three PBS washes. Solubilization buffer [100 μL of a 50:50 mixture of 0.1 mol/L NaH2PO4 (pH 4.5) and 50% ethanol] was added to each well. Relative attachment was determined using absorbance readings (A540 nm-A570 nm).

Another assay has as its target T1, CEA (HeLa-CEA2) (Homo sapiens, UniProt P06731).
T1 construct: expressed in transfected cells; host or cells: HeLa (HeLa-CEA2)
T1 sequence (P06731 35-676): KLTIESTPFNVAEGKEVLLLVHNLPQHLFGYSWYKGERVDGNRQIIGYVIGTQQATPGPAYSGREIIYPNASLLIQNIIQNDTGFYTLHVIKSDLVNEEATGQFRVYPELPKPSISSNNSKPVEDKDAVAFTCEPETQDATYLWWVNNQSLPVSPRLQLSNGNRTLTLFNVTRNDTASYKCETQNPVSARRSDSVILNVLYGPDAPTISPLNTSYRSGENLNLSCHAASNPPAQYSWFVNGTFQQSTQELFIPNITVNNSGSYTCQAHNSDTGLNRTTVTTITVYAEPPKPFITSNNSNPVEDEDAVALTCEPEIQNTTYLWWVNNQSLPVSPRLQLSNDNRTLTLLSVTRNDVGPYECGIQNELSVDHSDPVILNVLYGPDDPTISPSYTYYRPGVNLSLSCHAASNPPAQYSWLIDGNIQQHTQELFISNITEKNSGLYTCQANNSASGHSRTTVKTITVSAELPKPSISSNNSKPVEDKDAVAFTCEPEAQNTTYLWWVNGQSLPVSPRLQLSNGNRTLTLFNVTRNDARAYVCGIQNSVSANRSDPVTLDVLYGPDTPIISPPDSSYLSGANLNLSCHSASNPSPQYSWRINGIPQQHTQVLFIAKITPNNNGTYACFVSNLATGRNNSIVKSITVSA
The experiment in a line: Indirect flow cytometry, HeLa-CEA2. The class given is binding. The settings on record: antibodies at 1/50 dilution of 1 mg/ml stocks. On the procedure:
(§1) The reactivity of antibodies was tested by flow cytometry with a Becton-Dickinson FACSCAN®. The biotinylated second antibody was directed against mouse IgG and was detected by a streptavidin/phycoerythrin conjugate. Tests were carried out with antibodies at 1/50 dilution of 1 mg/ml stocks.
(§2) The antibodies MN-3 and MN-15 were tested for recognition of HeLa cells transfected with cDNA coding for CEA (HeLa-CEA2), NCA-90 (HeLa-KNC6/S44) and NCA-95 (HeLa-CGM6/1). As a negative control, HeLa cells transfected with the plasmid pSV2-Neo (control HeLa cells, HeLa-NeoA) were used. In addition to the antibodies MN-3 and MN-15, three control antibodies were included: […]
Background: In flow cytometry, cells or beads pass a laser one at a time.

The next assay concerns the target T2, NCA-90 (HeLa-KNC6/S44) (Homo sapiens, UniProt P40199).
T2 construct: expressed in transfected cells; host or cells: HeLa (HeLa-KNC6/S44)
T2 sequence (P40199 35-320): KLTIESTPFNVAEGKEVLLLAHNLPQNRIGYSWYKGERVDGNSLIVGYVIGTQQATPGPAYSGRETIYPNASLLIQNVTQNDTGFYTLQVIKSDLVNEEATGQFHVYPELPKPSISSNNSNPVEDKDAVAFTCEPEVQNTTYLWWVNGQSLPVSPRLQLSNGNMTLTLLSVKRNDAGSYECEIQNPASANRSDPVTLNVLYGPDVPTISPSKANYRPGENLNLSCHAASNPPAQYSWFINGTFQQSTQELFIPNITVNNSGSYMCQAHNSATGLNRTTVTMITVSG
The experiment in a line: Indirect flow cytometry, HeLa-KNC6/S44. It counts as binding. The settings on record: antibodies at 1/50 dilution of 1 mg/ml stocks. On the procedure:
as §1, §2

In assay [2] the test system is HT-29 cells adhesion to HUVEC. The experiment in a line: Endothelial cell adhesion assay, HT-29. The class given is cell-based, human. On the procedure:
Endothelial cell adhesion assay—Human umbilical vein endothelial cells (HUVEC; Cambrex, San Diego, Calif.) were grown in collagen-coated dishes in EGM Media in a humidified atmosphere with 5% CO2 at 37° C. At passages 2 to 5, cells were plated at a density of 4×10^4 cells per well in 96-well plates 24 hours before the assay. Interleukin-1β (IL-1β, 1 ng/mol) was added 4 hours before the assay. At the start of the study, the medium with the IL-1β was removed and fresh DMEM with 1% bovine serum albumin (BSA) added and incubated for 30 minutes. Fresh medium without antibodies or with 10 μg/mol of MN-15 Fab′, MN-3 Fab′, or Ag8 Fab′ was added. Tumor cells (1×10^6 cells/mol) prelabeled overnight with ^3H-thymidine (100 μL per well using 1.0 μCi/mL) were added to HUVEC cultures and incubated for 30 minutes at 37° C. with rotation in medium with 20% FBS. Samples were washed thrice with PBS to remove unattached cells. Attached cells were solubilized with 0.1 N NaOH and radioactivity was measured in a β scintillation counter. The cpm attached/total cpm added (attaching potential) was determined.

Two molecules from patent US9371393B2, “Class I anti-CEA antibodies and uses thereof” (Immunomedics, Inc., priority 2009, dated 2016) can be followed below.

B1: MN-15: murine Class I anti-CEA MAb, IgG1 kappa, binds A1B1 domain of CEACAM5 and CEACAM6 (antibody, V domains shown)
VL: DIQLTQSPAIMSASPGEKVTMTCSASSRVSYIHWYQQKSGTSPKRWIYGTSTLASGVPARFSGSGSGTSYSLTISSMEAEDAATYYCQQWSYNPPTFGAGTKLELKR
VH: EVRLVESGGGLVQGPGSLRLSCAASGFALTDYYMSWVRQSPGKTLEWLGFIANKANGHTTDYSPSVKGRFTISRDNSQTILYLQMNTLRTEDSATYYCARDMGIRWNFDVWGQGTTVTVSS
Consider B1, for which the “effect on binding to fibronectin” value in assay [1] is recorded as “not affecting the binding”. Besides, in the assay with CEA (HeLa-CEA2), the “binding to CEA” value was “binds to all three antigens”. Also, the “binding to NCA-90” value in the assay with NCA-90 (HeLa-KNC6/S44) was “binds to all three antigens”.

B2: MN-15 Fab′: monovalent Fab′ fragment of murine MN-15 (antibody, V domains shown)
VL: DIQLTQSPAIMSASPGEKVTMTCSASSRVSYIHWYQQKSGTSPKRWIYGTSTLASGVPARFSGSGSGTSYSLTISSMEAEDAATYYCQQWSYNPPTFGAGTKLELKR
VH: EVRLVESGGGLVQGPGSLRLSCAASGFALTDYYMSWVRQSPGKTLEWLGFIANKANGHTTDYSPSVKGRFTISRDNSQTILYLQMNTLRTEDSATYYCARDMGIRWNFDVWGQGTTVTVSS
Molecule B2 came in with a decrease in adhesion in assay [2] of 48%.
